Measurements taken from paper PMC8346945, “Evaluation of efficacy- versus affinity-driven agonism with biased GLP-1R ligands P5 and exendin-F1” (Biochemical Pharmacology, 2021).

Target: SNAP-GLP-1R (glucagon-like peptide-1 receptor with an N-terminal SNAP-tag), stably expressed in HEK293 cells (UniProt P43220)
Chain of UniProt P43220 (P43220 24-463): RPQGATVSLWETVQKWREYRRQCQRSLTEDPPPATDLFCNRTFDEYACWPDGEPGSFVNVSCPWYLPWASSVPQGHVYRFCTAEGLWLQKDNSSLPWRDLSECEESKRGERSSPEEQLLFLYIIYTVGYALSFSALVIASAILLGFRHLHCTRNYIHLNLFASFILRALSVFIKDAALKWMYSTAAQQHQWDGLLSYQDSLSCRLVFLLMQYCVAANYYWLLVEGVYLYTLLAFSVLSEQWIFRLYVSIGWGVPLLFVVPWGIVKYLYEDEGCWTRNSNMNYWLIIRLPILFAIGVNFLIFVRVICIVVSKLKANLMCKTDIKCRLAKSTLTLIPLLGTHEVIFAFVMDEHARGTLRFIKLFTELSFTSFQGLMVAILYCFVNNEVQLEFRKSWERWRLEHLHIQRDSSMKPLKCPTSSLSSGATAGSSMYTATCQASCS

## Exendin-4 (from UniProt P26349 48-87) (peptide)
  cAMP production in HEK293-SNAP-GLP-1R cells, 30-min stimulation, pEC50: 9.9 pEC50 (M)
